Reference: the supplement of paper PMC10567573

B1: HDAC6 (parent)
chain: QEGLLDRCVSFQARFAEKEELMLV
B2: SCNN1D (parent)
chain: FLGHHSFSVRPGTEATISIREDEV

Variants of: B1
Assay: protein stability index of a GFP-peptide fusion (GPS, HEK-293T) (PSI 1-6); higher = more stable
Settings: c terminus: a fixed tail appended
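Further: lentivirally expressed fusions sorted by FACS into six bins by GFP to DsRed ratio, PSI derived from sequencing read proportions per bin multiplied by bin number.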

Protein stability index: each site, then its substitutions
S10: P 1.99 | E 2.17
L21: H 2.45
K18: S 1.75 | M 2.04 | L 1.49
Q1: S 2.34 | T 1.77 | H 1.54
L23: D 4.37 | Y 2.14
R14: V 1.38 | L 1.7
Q12: K 2 | N 2.65 | V 1.14
E19: K 1.9 | R 1.84 | M 1.58 | F 1.98 | S 2.14 | I 2
V24: H 2.82
E17: T 1.46 | G 1.95 | Y 1.67
F15: C 2.36 | A 2.33 | R 2.58 | W 2.36
L5: H 1.67 | P 1.83 | G 1.71
G3: F 1.06 | I 1.95 | P 1.78
A13: I 1.47 | W 2.2
A16: Y 1.65 | Q 1.93 | F 1.75
V9: H 1.94 | S 2.84
E2: C 2 | M 1.62 | R 1.95 | N 1.28
M22: Y 2.03 | I 1.92 | G 3.27
L4: Y 2.01 | S 1.75
E20: F 2.98
F11: R 2.66 | D 3.01
D6: M 1.87 | Y 1.95 | Q 1.87 | C 1.78

Variants of: B2
Assay: as above
Settings: c terminus: a fixed tail appended

Protein stability index: each site, then its substitutions
H4: D 3.7 | L 2.08 | P 1.7 | K 2.16 | G 2.2 | E 3.39 | C 1.39 | F 3.4 | Q 1.32 | I 2.64 | R 2.68 | Y 1.42 | S 1.9 | V 1.77
F1: T 4.8 | E 5.02 | M 4.68 | N 4.38 | G 4.59 | P 4.64 | Q 4.33 | W 2.77 | Y 1.97
P11: D 1.88 | S 1.72 | W 1.97 | A 1.53 | Q 1.99 | M 1.25 | Y 1.99
G3: K 3.02 | E 2.58 | V 1.64 | D 2.77 | C 2.51 | R 2.09 | Y 3.25 | I 1.59 | F 3.48 | P 4.02 | T 2.23
L2: I 2.44 | F 2.93 | G 2.72 | R 4.48 | K 4.07 | E 4.5 | P 1.72 | H 1.33 | D 5.03 | T 3.09
V24: Y 1.48 | S 1.62 | R 1.49 | A 1.8 | M 2.75 | Q 2.25 | L 1.66 | C 1.81
S6: A 3.88 | W 1.85 | K 1.7 | Q 1.76 | H 2.08 | T 2.02 | M 2.96 | D 2.13 | P 1.46 | Y 2.88
F7: I 3.65 | M 4.18 | A 4.31 | D 4.41 | T 4.81 | R 3.94 | S 4.1 | H 4.17 | G 4.43 | K 4.54 | L 4.01 | N 4.38 | Y 2.38
G12: L 1.71 | Y 1.15 | E 1.88 | I 1.54 | M 1.85 | A 2.2 | F 2.69 | W 1.42 | T 1.67 | H 1.81 | D 2.35
E14: V 2.18 | I 1.77 | S 1.77 | G 2.31 | K 1.93 | F 1.37 | L 1.92 | N 1.82 | M 1.25 | H 2.11 | A 1.92
V9: E 2.83 | N 2.6 | H 3.09 | G 3.44 | C 2.08 | A 2.36 | M 2.42 | Q 2.86 | I 2.26 | D 3.54 | T 2.29 | W 1.64
A15: L 2.66 | N 2 | V 1.47 | C 2.34 | H 1.67 | K 1.91 | G 2.01 | W 3.05 | Y 1.71 | D 2.08
D22: F 1.73 | Q 1.39 | R 2.4 | T 2.07 | N 2.23 | A 1.89 | E 2.11 | Y 3.14 | M 2.45 | V 1.57
I19: M 1.55 | F 2.21 | P 1.89 | E 1.71 | W 1.32 | V 2.74 | K 2.14 | L 2.16 | T 1.74 | R 2.06 | Q 1.99 | A 2.68 | N 2.42
S8: V 1.8 | N 2.4 | R 1.96 | M 1.75 | T 1.62 | Q 1.78 | H 2.12 | P 3.49 | I 2.04 | K 1.57 | D 3.02 | G 2.43 | L 1.65 | A 3.59
E21: S 1.8 | R 2.6 | Q 1.74 | Y 2.52 | T 2.55 | N 2.11 | I 3.27 | C 1.68 | M 2.08 | K 1.44 | V 3.42 | A 2.25
T13: A 1.77 | V 1.49 | S 1.18 | E 2.09 | H 2.03 | G 1.25 | N 1.49 | K 2.37 | L 2.71 | R 1.7
S18: Q 1.79 | T 1.66 | G 1.47 | R 2.22 | M 1.55 | F 1.8 | N 1.57 | L 2.2 | I 1.96 | Y 1.71 | P 1.8 | V 1.25 | D 1.43 | K 1.67
T16: Q 2.8 | F 2.04 | M 2.62 | V 2.25 | S 2.57 | W 1.4 | I 2.29 | G 2.1 | Y 2.23 | C 1.29 | R 2.46 | A 2.37 | N 2.05 | H 1.87
R10: H 2.3 | G 2.04 | C 2.52 | T 1.92 | A 1.56 | K 2.33 | F 1.66 | Q 2.49 | D 2.77 | N 1.53 | L 1.41
H5: G 2.3 | A 2.46 | L 2.28 | Y 1.89 | V 1.33 | K 3.06 | R 2.55 | W 3.19 | I 1.64 | T 1.54
I17: C 1.96 | G 2.38 | D 2.12 | N 1.68 | T 2.24 | Y 2.79 | L 1.62 | V 1.68 | M 1.75 | P 2.19 | Q 2.54 | W 1.58
E23: N 2.1 | G 2.29 | S 1.06 | A 1.96 | K 2.38 | M 1.91 | R 1.73 | F 2.45 | Y 2.54 | D 2.12 | W 3.12 | I 2.23 | T 1.41 | P 1.99 | L 1.66 | Q 1.65
R20: E 2.1 | G 2.3 | K 1.73 | F 3.02 | Q 1.79 | S 2.27 | L 1.52 | V 1.65 | I 2.5 | Y 1.77 | C 2.24 | D 1.9 | W 1.42
